Experimental data from patent US20240132622A1 (Bristol-Myers Squibb, published 2024).

Legend:
recombinant human PAD4 [1] = molecular target: T1, recombinant human PAD4 (human, UniProt Q9UM07 1-663); assay: cell-based or functional assay
recombinant human PAD4 [2] = molecular target: T1, recombinant human PAD4; assay: SPR 37 C, captured antibody, PAD4 analyte, 1 mM CaCl2; 1 mM CaCl2, 37 C; mean of two or three experiments
Method: (§1) For SPR measurements, either an anti-human capture surface or Protein A surface (Cytiva catalog #29127555) was used. Anti-human capture surface was prepared by immobilizing anti-human capture antibody (Cytiva catalog #29234600) onto flow cells of a CM5 or CM4 biosensor following the manufacturer's amine coupling protocol (Cytiva catalog #BR-1006-33). SPR experiments were conducted at 37° C. using HBS-P (150 mM NaCl, 10 mM HEPES, pH 7.6, 0.05% Tween-20) (TEKNOVA catalog #H8032) with additional 150 mM NaCl and 1 mM or 2 mM CaCl₂) (see Table 2) or 2 mM EDTA (see Table 3) as running buffer. Antibodies were diluted to 1.5 μg/mL in the running buffer, and were captured across active biosensor flow cells at 10 μL/min for 15 to 30 seconds. […] The association and dissociation of the antibodies with PAD4 were measured. One 30 second injection followed by one 15 second injection of 10 mM glycine pH 1.5 was used to regenerate the Protein A capture surface between assay cycles. For anti-human capture surface, two 30 second injections of 3 M MgCl₂ was used for regeneration. […]
(§2) Rate constants kₒₙ and koff were derived from reference flow cell- and 0 nM blank-subtracted sensorgrams, and were fit to a 1:1 binding model in Biacore® Insight Evaluation software version 3.0.12.15655. […] The equilibrium dissociation constant, KD, was calculated as the ratio of rate constants koff/kₒₙ for each PAD4 antibody. […]

[3] = molecular target: extracellular matrix (ECM) proteins; assay: ECM plate ELISA (Matrigel), 1 uM antibody, A450 over wells without sample
recombinant human PAD4 [4] = molecular target: T1, recombinant human PAD4; assay: SPR 37 C, captured antibody, PAD4 analyte, 1 mM CaCl2
Method: Their binding to human PAD4 was measured by Surface Plasmon Resonance (SPR). SPR measurements were performed with a Biacore® 8K, 8K+, or T200 instrument (Cytiva). The association rate constants, kₒₙ, dissociation rate constants, koff, and equilibrium dissociation constants, KD, of the antibodies with PAD4 were determined from these SPR measurements.
(§3) For SPR measurements, either an anti-human capture surface or Protein A surface (Cytiva catalog #29127555) was used. Anti-human capture surface was prepared by immobilizing anti-human capture antibody (Cytiva catalog #29234600) onto flow cells of a CM5 or CM4 biosensor following the manufacturer's amine coupling protocol (Cytiva catalog #BR-1006-33). SPR experiments were conducted at 37° C. using HBS-P (150 mM NaCl, 10 mM HEPES, pH 7.6, 0.05% Tween-20) (TEKNOVA catalog #H8032) with additional 150 mM NaCl and 1 mM or 2 mM CaCl₂) (see Table 2) or 2 mM EDTA (see Table 3) as running buffer. Antibodies were diluted to 1.5 μg/mL in the running buffer, and were captured across active biosensor flow cells at 10 μL/min for 15 to 30 seconds. […] The association and dissociation of the antibodies with PAD4 were measured. One 30 second injection followed by one 15 second injection of 10 mM glycine pH 1.5 was used to regenerate the Protein A capture surface between assay cycles. For anti-human capture surface, two 30 second injections of 3 M MgCl₂ was used for regeneration. SPR measurements for mAb20 and mAb 13 SPR were done in the presence of 2 mM CaCl₂). The remaining antibodies were tested in the presence of 1 mM CaCl₂).
(§4) Rate constants kₒₙ and koff were derived from reference flow cell- and 0 nM blank-subtracted sensorgrams, and were fit to a 1:1 binding model in Biacore® Insight Evaluation software version 3.0.12.15655. Deviations from 1:1 binding model were observed, which may be caused by increased dimerization of PAD4 at higher concentrations. The equilibrium dissociation constant, KD, was calculated as the ratio of rate constants koff/kₒₙ for each PAD4 antibody.

recombinant human PAD4 [5] = molecular target: T1, recombinant human PAD4; assay: SPR 37 C, captured antibody, PAD4 analyte, 2 mM EDTA
Method: as §3
as §4, with “antibody. For those antibodies that were tested in multiple SPR experiments, the average value and standard deviation from two or three separate experiments are listed in Tables 2 and 3.” for “antibody.”

recombinant human PAD4 [6] = molecular target: T1, recombinant human PAD4; assay: SPR 37 C, captured antibody, PAD4 analyte, 2 mM CaCl2
Method: as §3
as §4, with “antibody. For those antibodies that were tested in multiple SPR experiments, the average value and standard deviation from two or three separate experiments are listed in Tables 2 and 3.” for “antibody.”

[7] = molecular target: T2, recombinant human GST-PAD4 fusion protein (human, UniProt Q9UM07 1-663); assay: BLI (BLITZ), GST-PAD4 on anti-GST biosensor
T2 construct: not shown: GST tag
Method: Affinity testing methods. Affinity of each antibody clone for a GST-PAD4 fusion protein was determined by Biolayer Interferometry (BLI) using a BLITZ instrument (Forte Bio, Menlo Park, California), using a biosensor chip (Anti-GST chip, Forte Bio, Cat. No. 18-5096). The biosensor was treated with citrate buffer, PBS, or PBS/Ca for 15 seconds; recombinant human GST-PAD4 was added on a drop holder for 80 seconds to prime the biosensor with PAD4; antibody was then added on the drop holder for 80 seconds to allow binding between antibody and the PAD4; PBS/PBS-Ca was added on the drop holder for 60 seconds to remove unbound antibody. The association rate constants, kₒₙ, dissociation rate constants, koff, and equilibrium dissociation constants, KD, were determined using BLITZ Pro Software, version 1.2.0.49.

recombinant human PAD4 [8] = molecular target: T1, recombinant human PAD4; assay: cell-based or functional assay; remark: listed apart in the source
mouse PAD4 [9] = molecular target: T3, mouse PAD4 (mouse, UniProt Q9Z183 1-666); assay: SPR 37 C, antibody on anti-murine capture surface, PAD4 analyte, 2 mM CaCl2
T3 construct: also called mPAD4; murine PAD4
T3 sequence (Q9Z183 whole entry): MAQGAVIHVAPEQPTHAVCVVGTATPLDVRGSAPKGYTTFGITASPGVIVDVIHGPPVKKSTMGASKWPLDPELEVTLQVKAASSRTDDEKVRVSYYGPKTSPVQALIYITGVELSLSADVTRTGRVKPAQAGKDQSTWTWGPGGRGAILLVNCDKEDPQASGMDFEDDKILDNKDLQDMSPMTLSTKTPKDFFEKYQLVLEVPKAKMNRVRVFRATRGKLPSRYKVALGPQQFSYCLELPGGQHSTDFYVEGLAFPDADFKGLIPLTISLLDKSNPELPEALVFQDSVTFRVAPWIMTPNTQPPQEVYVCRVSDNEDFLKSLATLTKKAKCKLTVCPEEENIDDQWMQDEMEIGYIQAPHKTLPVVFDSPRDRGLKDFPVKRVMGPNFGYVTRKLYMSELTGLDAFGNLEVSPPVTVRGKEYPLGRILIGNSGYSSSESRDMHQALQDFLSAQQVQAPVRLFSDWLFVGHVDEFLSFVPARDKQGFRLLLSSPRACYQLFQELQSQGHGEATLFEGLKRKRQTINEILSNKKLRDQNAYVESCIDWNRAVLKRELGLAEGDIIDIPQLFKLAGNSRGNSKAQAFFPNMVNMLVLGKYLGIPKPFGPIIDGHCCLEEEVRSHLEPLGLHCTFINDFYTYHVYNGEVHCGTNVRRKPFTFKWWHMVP
Method: SPR Methods. In general, SPR methods were as described in Example 3 above with the following modifications. An anti-murine capture surface was used that was prepared by immobilizing anti-murine capture antibody (Cytiva catalog #BR100838) onto flow cells of a CM5 biosensor following the manufacturer's amine coupling protocol (Cytiva catalog #BR-1006-33). SPR experiments were conducted at 37° C. using HBS-P (150 mM NaCl, 10 mM HEPES, pH 7.6, 0.05% Tween-20) (TEKNOVA catalog #H8032) with additional 500 mM NaCl and 2 mM CaCl₂) as running buffer. Several concentrations of PAD4, from 0.8 nM to 150 nM were prepared using the running buffer. The association and dissociation of the antibodies with PAD4 were measured. Two 90 second injections of 10 mM glycine pH 1.7 was used to regenerate the anti-murine capture surface.

mouse PAD4 [10] = molecular target: T3, mouse PAD4; assay: cell-based or functional assay
recombinant human PAD4 [11] = molecular target: T1, recombinant human PAD4; assay: cell-based or functional assay; remark: listed apart in the source
recombinant human PAD4 [12] = molecular target: T1, recombinant human PAD4; assay: SPR 37 C, captured antibody, PAD4 analyte, 2 mM CaCl2; biphasic response, approximate KD; 2 mM CaCl2, 37 C; biphasic response
Method: as §1, §2

N-His-TVMV-PAD4 = molecular target: T4, N-His-TVMV-PAD4 (human, UniProt Q9UM07 1-663); assay: complex purified by size exclusion chromatography; cryo-EM
T4 construct: E. coli expressed; used for the cryo-EM complex with clone 13 Fab, seen as a 2:2 assembly; also called Human PAD4 (1-663); full-length PAD4 construct with cleavable N-terminal his tag
T4 chain: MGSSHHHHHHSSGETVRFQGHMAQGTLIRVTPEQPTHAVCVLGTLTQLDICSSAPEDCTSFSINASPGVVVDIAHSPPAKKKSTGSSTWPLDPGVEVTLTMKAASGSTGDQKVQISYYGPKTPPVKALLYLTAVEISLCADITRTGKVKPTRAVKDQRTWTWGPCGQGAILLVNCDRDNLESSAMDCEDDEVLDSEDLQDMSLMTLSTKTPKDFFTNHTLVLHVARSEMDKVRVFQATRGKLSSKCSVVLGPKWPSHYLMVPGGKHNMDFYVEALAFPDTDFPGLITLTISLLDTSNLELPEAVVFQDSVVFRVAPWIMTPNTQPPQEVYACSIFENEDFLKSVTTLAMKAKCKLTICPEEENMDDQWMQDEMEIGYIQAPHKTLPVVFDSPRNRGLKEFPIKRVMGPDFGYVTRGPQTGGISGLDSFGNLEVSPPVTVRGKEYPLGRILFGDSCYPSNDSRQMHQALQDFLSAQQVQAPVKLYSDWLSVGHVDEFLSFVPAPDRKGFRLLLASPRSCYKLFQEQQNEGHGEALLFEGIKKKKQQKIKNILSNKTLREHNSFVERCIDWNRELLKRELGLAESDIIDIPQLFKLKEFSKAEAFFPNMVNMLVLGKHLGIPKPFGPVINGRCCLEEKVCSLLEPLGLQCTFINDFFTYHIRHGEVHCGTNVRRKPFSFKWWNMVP

T1 sequence (Q9UM07 whole entry): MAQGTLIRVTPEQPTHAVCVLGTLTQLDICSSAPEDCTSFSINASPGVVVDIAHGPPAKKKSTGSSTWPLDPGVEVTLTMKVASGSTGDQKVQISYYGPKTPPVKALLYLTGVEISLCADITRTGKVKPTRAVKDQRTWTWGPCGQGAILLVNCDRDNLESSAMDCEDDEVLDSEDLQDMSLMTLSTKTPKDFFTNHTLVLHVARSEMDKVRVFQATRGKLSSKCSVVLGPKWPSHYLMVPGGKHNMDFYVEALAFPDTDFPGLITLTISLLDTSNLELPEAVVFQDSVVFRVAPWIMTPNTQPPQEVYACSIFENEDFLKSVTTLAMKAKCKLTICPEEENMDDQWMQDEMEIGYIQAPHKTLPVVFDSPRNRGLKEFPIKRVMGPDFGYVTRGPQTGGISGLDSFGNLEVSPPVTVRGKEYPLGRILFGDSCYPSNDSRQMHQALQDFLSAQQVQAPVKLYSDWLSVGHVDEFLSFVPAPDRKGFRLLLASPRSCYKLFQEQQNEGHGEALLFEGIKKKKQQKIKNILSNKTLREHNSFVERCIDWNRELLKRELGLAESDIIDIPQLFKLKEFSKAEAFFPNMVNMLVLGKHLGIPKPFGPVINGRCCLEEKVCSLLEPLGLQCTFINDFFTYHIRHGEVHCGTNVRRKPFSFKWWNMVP

B1: hz20-1 (antibody, V domains shown)
VH: QVQLVQSGAEVKKPGASVKVSCKASGYTFTNYGISWVRQAPGQGLEWMGEIYPRSGNTYHNEKFKDRVTMTRDTSTSTVYMELSSLRSEDTAVYYCARSMITTRYWYFDVWGKGTTVTVSS
VL: DIVMTQSPDSLAVSLGERATINCRASESVDTYGNSFMHWYQQKPGQPPKLLIYLASNLESGVPDRFSGSGSGTDFTLTISSLQAEDVAVYYCQQNNEDPLTFGAGTKLELK
notes: light constant region not tied to this antibody
For B1, the “IC50 (average), PAD4 citrullination of peptide …, RapidFire MS” value (shortened to “IC50 (average), PAD4 citrullination”) (recombinant human PAD4 [1]) was 77 nM, the kon (recombinant human PAD4 [2]) was 550000 M⁻¹ s⁻¹ and the ECM Score (1 µM) [3] was 1. It also gave a Kd (recombinant human PAD4 [4]) of 2.7 nM, a koff (recombinant human PAD4 [4]) of 0.00089 s⁻¹ and a Kd (recombinant human PAD4 [5]) of 2.6 nM. It also gave a koff (recombinant human PAD4 [5]) of 0.00054 s⁻¹ and a kon (recombinant human PAD4 [5]) of 220000 M⁻¹ s⁻¹.

B2: clone 13 (mAb13) (antibody, V domains shown)
VH: EVLLQQSGAELVKPGASVRLSCTSSDFNIKDHFIHWVKQRTEQGLEWIGRIDPEDDETKYAPKFQDKVTITADTSSNTAYLQLSSLTSEDTAVFYCAGYGNYEGAMDYWGQGTSVTVSS
VL: DIVLTQSPTSLGVSPGQRATLSCRASENVNNYGIGFMNWFQQKPGQPPKLLIYAASRRGSGVPARFSGSGSGTDFSLNIHPMEEDDTAMYFCQQSKEVPYTFGGGTNLEIR
notes: Murine anti-human PAD4 antibody; also called murine anti-human clone 13 antibody
B2 was tested, and the “IC50 (average), PAD4 citrullination” value (recombinant human PAD4 [1]) was 30 nM, the Kd (recombinant human PAD4 [6]) was 3.2 nM and the koff (recombinant human PAD4 [6]) was 0.0011 s⁻¹. For the same binder, the kon (recombinant human PAD4 [6]) was 350000 M⁻¹ s⁻¹, the Kd [7] was less than 0.0244 nM and the koff [7] was less than 1e-06 s⁻¹. For the same binder, the kon [7] was 41100 M⁻¹ s⁻¹ and the “IC50 of inhibition of PAD4 activity (% Activity against [AB Clone 13] nM)” value (recombinant human PAD4 [8]) was 10.1 nM.

B3: mumAb (antibody, mouse IgG1, kappa, V domains shown)
VH: EVQLQQPGAELVKPGASVKLSCKASDHTFTTYWIHWVKQRPGRGLEWIGRIGPNSGGSKYNEKFRTKATLTVDKPSSTAYMQLSSLKSEDSAVYFCAFSNYLDYLDYWGQGTTLTVSS
VL: DIVLTQSPASLAVSLGQRATISCKASQSVDHDGEGYMNWYQQKPGQPPKLLIYAASNLESGIPARFSGSGSGTDFTLNIHPVEEEDAATYYCQQINEDPYTFGGGTKLEIKR
notes: Formatted as mIgG1-D265A; also called anti-murine PAD4 mAb; mouse anti-mPAD4 mumAb antibody
For B3, the Kd (mouse PAD4 [9]) was 0.7 nM, the koff (mouse PAD4 [9]) was 0.0002 s⁻¹ and the kon (mouse PAD4 [9]) was 290000 M⁻¹ s⁻¹. The “IC50, mPAD4 citrullination of peptide …, RapidFire MS, 50 nM mPAD4” value (mouse PAD4 [10]) was 13.2 nM.

B4: clone 20 (mAb20) (antibody, V domains shown)
VH: QVQLQQSGAELARPGASVKLSCKATGYTFTNYGISWVKQRTGQGLEWIGEIYPRSGNTYHNEKFKDKATLTADKSSSTAYMEFRSLTSEDSAVYFCARSMITTRYWYFDVWGKGTTVTVSS
VL: NIVLTQSPASLAVSLGQRATLSCRASESVDTYGNSFMHWYQQKPGQPPKLLIYLASNLESGVPARFSGSGSRTDFTLTIDPVEADDAATYYCQQNNEDPLTFGAGTKLELK
notes: Murine anti-human PAD4 antibody; also called murine anti-human clone 20 antibody
B4 was tested, and the “IC50 (average), PAD4 citrullination” value (recombinant human PAD4 [1]) was 104 nM, the “IC50 of inhibition of PAD4 activity (% Activity against [AB Clone 20] nM)” value (recombinant human PAD4 [11]) was 39.6 nM and the koff (recombinant human PAD4 [6]) was 0.0062 s⁻¹. The kon (recombinant human PAD4 [6]) was 43000 M⁻¹ s⁻¹, the Kd [7] was less than 1.71 nM and the koff [7] was less than 1e-06 s⁻¹. It also gave a kon [7] of 583 M⁻¹ s⁻¹ and a Kd (recombinant human PAD4 [12]) of roughly 150 nM.

B5: clone 13 Fab (Fab, V domains shown)
VH: B2 VH
VL: DIVLTQSPTSLGVSPGQRATLSCRASENVNNYGIGFMNWFQQKPGQPPKLLIYAASRRGSGVPARFSGSGSGTDFSLNIHPMEEDDTAMYFCQQSKEVPYTFGGGTNLEIRR
notes: Heavy chain fragment with C-terminal His-tag; murine constant regions; also called Fab of clone 13; Fab13
B5: binds (N-His-TVMV-PAD4).
